Experimental data taken from the supplement of paper PMC10724198.

Tested on: Saccharomyces cerevisiae
Experiment: protein stability index of tFT-peptide fusion in wild type (PSI (0-1 scale)); higher = more stable (slower turnover)
Conditions: genetic background: wild type
Experimental: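 MPS profiling in S. cerevisiae of two library types built from selected 12-aa C-degron peptides (IN1, IN2, LN1, LN3, VN2, R1-R5, W1-W3, Atg1 and Rpa12 C-termini): saturation mutagenesis libraries and C-terminal +1 capping libraries (13 aa). Each peptide is fused to the C-terminus of a sfGFP-mCherry timer, after a GGGS linker. Cells are FACS-sorted into 8 mCherry/sfGFP bins and sequenced. PSI runs from 0 (unstable) to 1 (stable), measured once in wild type and in the das1Δ or doa10Δ background.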
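Also: PSI derived as read-weighted mean over the 8 sorting bins, only variants exceeding 10 total reads kept, mCherry placed adjacent to the peptide and sfGFP distal.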

Point of comparison: LVVYLSCVACINT, protein stability index 0.0205. Against it:
- GRGAVGGWRLVG — higher, 0.19
- IKHKKGQKQKIN — higher, 0.109
- ITSCGYKFRTNN — higher, 0.208
- KDHKKGQKQKIN — higher, 0.0956
- KKCKKGQKQKIN — higher, 0.102
- KKHKKEQKQKIN — higher, 0.0895
- KKHKKGQKFKIN — higher, 0.158
- KKHKKGQKNKIN — higher, 0.096
- KKHKKGQKQAIN — higher, 0.57
- KKHKKGQKQKEN — higher, 0.57
- KKHKKGQKQKING — higher, 0.293
- KKHKKGQKQKIT — higher, 0.263
- KKHKKGQKQKIY — higher, 0.255
- KKHKKGQKQKRN — higher, 0.5
- KKHKKGQKQPIN — higher, 0.637
- KKHKKGQKSKIN — higher, 0.548
- KKHKKGQMQKIN — higher, 0.209
- KKHKKGQRQKIN — higher, 0.0819
- KKHKKGQWQKIN — higher, 0.106
- KKHKKYQKQKIN — higher, 0.0518
- KKHKPGQKQKIN — higher, 0.143
- KKHKWGQKQKIN — higher, 0.05
- KKHKYGQKQKIN — higher, 0.067
- KKHLKGQKQKIN — higher, 0.0828
- KKHQKGQKQKIN — higher, 0.0868
- KNHKKGQKQKIN — higher, 0.121
- KSMRWTFRYWVN — higher, 0.0597
- LAVYLSCVACIN — higher, 0.0214
- LCVYLSCVACIN — lower, 0.0138
- LFILRQKMNHQN — higher, 0.126
- LKHLRQKMNHQN — higher, 0.175
- LKILAQKMNHQN — higher, 0.229
- LKILCQKMNHQN — higher, 0.246
- LKILRCKMNHQN — higher, 0.17
- LKILRQKMNHQK — higher, 0.666
- LKILRQKMNHQNA — higher, 0.658
- LKILRQKMNHQND — higher, 0.675
- LKILRQKMNHQNP — higher, 0.678
- LKILRQKMNHQNT — higher, 0.671
- LKILRQKMNHQR — higher, 0.67
- LKILRQKMNMQN — higher, 0.281
- LKILRQVMNHQN — higher, 0.315
- LKIMRQKMNHQN — higher, 0.23
- LKLLRQKMNHQN — higher, 0.208
- LKVLRQKMNHQN — higher, 0.177
- LMVYLSCVACIN — lower, 0.0204
- LNILRQKMNHQN — higher, 0.121
- LPILRQKMNHQN — higher, 0.125
- LPVYLSCVACIN — higher, 0.055
- LTILRQKMNHQN — higher, 0.123
- LVLYLSCVACIN — lower, 0.0137
- LVQYLSCVACIN — higher, 0.0238
- LVVCLSCVACIN — lower, 0.0139
- LVVGLSCVACIN — higher, 0.159
- LVVMLSCVACIN — lower, 0.0128
- LVVYLLCVACIN — lower, 0.0159
- LVVYLSCAACIN — higher, 0.0321
- LVVYLSCEACIN — higher, 0.0807
- LVVYLSCKACIN — lower, 0.0136
- LVVYLSCVACAN — lower, 0.0124
- LVVYLSCVACIC — lower, 0.0144
- LVVYLSCVACID — lower, 0.0162
- LVVYLSCVACINI — higher, 0.0206
- LVVYLSCVACINK — higher, 0.0222
- LVVYLSCVACINY — higher, 0.0212
- LVVYLSCVACIQ — lower, 0.0107
- LVVYLSCVACIS — lower, 0.014
- LVVYLSCVACIV — lower, 0.0146
- LVVYLSCVAKIN — lower, 0.0143
- LVVYLSCVALIN — lower, 0.0158
- LVVYLSCVHCIN — higher, 0.0533
- LVVYLSCVSCIN — lower, 0.0143
- LVVYNSCVACIN — higher, 0.245
- LVVYQSCVACIN — higher, 0.216
- LVVYTSCVACIN — lower, 0.0172
- PDKMNHLIKLLN — higher, 0.111
- PDKRNHLIKCLN — higher, 0.169
- PDKRNHLIKLEN — higher, 0.611
- PDKRNHLIKLLG — higher, 0.238
- PDKRNHLIKLLK — higher, 0.758
- PDKRNHLIKLLND — higher, 0.638
- PDKRNHLIKLLNP — higher, 0.663
- PDKRNHLIKVLN — higher, 0.186
- PDKRNHLIRLLN — higher, 0.144
- PDKRNHLLKLLN — higher, 0.157
- PDKRRHLIKLLN — higher, 0.115
- PDLAASFWRVVG — higher, 0.151
- PDNRNHLIKLLN — higher, 0.171
- PDTRNHLIKLLN — higher, 0.183
- PGKRNHLIKLLN — higher, 0.127
- PHLAASFWRVVG — higher, 0.148
- PLIQPLPVQFLN — higher, 0.0682
- PSDAASFWRVVG — higher, 0.187
- PSLAAKFWRVVG — higher, 0.149
- PSLAASDWRVVG — higher, 0.627
- PSLAASFWCVVG — higher, 0.47
- PSLAASFWDVVG — higher, 0.694
- PSLAASFWRHVG — higher, 0.181
- PSLAASFWRKVG — higher, 0.131
- PSLAASFWRVVGI — higher, 0.667
- PSLAASFWRVVGS — higher, 0.234
- PSLAASPWRVVG — higher, 0.519
- PSLADSFWRVVG — higher, 0.586
- PSLAMSFWRVVG — higher, 0.146
- PSLHASFWRVVG — higher, 0.157
- PSLVASFWRVVG — higher, 0.137
- PSSAASFWRVVG — higher, 0.143
- QSMRWTFRYWVN — higher, 0.047
- RHIQPLPVQFLN — higher, 0.167
- RKIQPLPVQFLN — higher, 0.0533
- RLIIPLPVQFLN — lower, 0.018
- RLIQALPVQFLN — higher, 0.0525
- RLIQPAPVQFLN — higher, 0.0579
- RLIQPLDVQFLN — higher, 0.225
- RLIQPLEVQFLN — higher, 0.163
- RLIQPLPQQFLN — higher, 0.0631
